{
  "source": "paper PMC6021111",
  "about": "“Murine leukemia virus p12 tethers the capsid-containing pre-integration complex to chromatin by binding directly to host nucleosomes in mitosis” (PLoS Pathogens, 2018)",
  "molecules": {"B1": {"name": "GST-p12_WT: N-terminally GST-tagged Mo-MLV p12 (protein)", "chain": "PALTPSLGAKPKPQVLSDSGGPLIDLLTEDPPPYRDPRPPPSDRDGNGGEATPAGEAPDPSPMASRLRGRREPPVADSTTSQAF", "modifications": "left off: GST, N-terminal, kept", "notes": "N-terminally GST-tagged Mo-MLV p12"}},
  "key": {"[1]": {"test_system": "GST-p12 phosphorylation in 293T cells", "assay": "GST-p12 phosphorylation by ProQ diamond / Sypro ruby staining", "format": "cell-based", "settings": "PQ/SR ratio, 3 technical replicates; \"at least\"", "description": "Firstly, GST-p12 pulled-down from mitotic cell lysates was analysed by SDS-PAGE followed by sequential staining with two fluorescent dyes, ProQ diamond (PQ) and Sypro Ruby (SR). PQ is a small molecule fluorophore that binds with high-specificity to phosphorylated proteins. SR binds all proteins and is useful as a total protein indicator. The ratio of PQ and SR dye signals provides a measure of the phosphorylation level with respect to the total amount protein. Viral p12 is known to be mainly phosphorylated at serine 61 within the CTD [19, 25]. We therefore compared the relative phosphorylation levels of GST-p12_WT with a S61A mutant. Compared to p12_S61A, p12_WT was at least 3-fold more phosphorylated (Fig 3E, lanes 2 and 3).\nGST-p12 proteins were expressed in 293T cells from pCAGGS/GST-derived plasmids by transient transfection using Turbofect (Thermo Fisher Scientific). Approximately 24 h after transfection, cells were changed into fresh media containing either 400 ng/ml nocodazole (Sigma) or 2 μg/ml aphidicolin (Sigma) and incubated overnight at 37°C. The synchronisation of the cell cultures after drug treatment was assessed by propidium iodide staining and cell cycle phase analysis by flow cytometry. […] ProQ diamond and Sypro ruby staining (Thermo Fisher Scientific) of gels was visualised and quantified on a ChemiDoc imaging system (Bio-Rad)."}, "[2]": {"assay": "Biochemical fractionation of 293T cells expressing GST-p12", "format": "cell-based", "settings": "cycling cells, ~40 h expression, immunoblot of S2, S3, P3", "description": "GST-p12 proteins were expressed in 293T cells from pCAGGS/GST-derived plasmids by transient transfection using Turbofect (Thermo Fisher Scientific). Cell media was changed 24 h after transfection, and cells were incubated overnight at 37°C, before being harvested, counted, pelleted (500 g, 5 min) and snap frozen in dry ice/ethanol. Biochemical fractionation of cells was performed essentially as described in [14]. Briefly, cell pellets thawed on ice were resuspended at 2.5× 10^7 cells/ml in buffer 1 (10 mm HEPES pH 7.9, 10 mm KCl, 1.5 mm MgCl2, 10% glycerol, 0.34 m sucrose, 1 mm DTT and protease inhibitors) and then supplemented with 0.1% Triton-X-100. Cells were incubated on ice for 5 min and nuclei (P1) were collected by centrifugation at 1300 g, 5 min, 4°C. The supernatant (S1) was clarified by further centrifugation (5 min, 20 000 × g, 4°C) to collect the cytosolic supernatant fraction (S2). The P1 nuclei were washed once with buffer 1 and then lysed for 30 min in buffer 2 (3 mM EDTA, 0.2 mM EGTA and 1 mM DTT, protease inhibitors). The chromatin (P3) and soluble nuclear (S3) fractions were separated by centrifugation (5 min, 1700 g, 4°C). The S2, S3 and P3 fractions were analysed by immunoblotting."}, "[3]": {"test_system": "double- and single-stranded calf thymus DNA", "assay": "Pull-down with DNA-coated cellulose beads", "format": "binding", "settings": "293T lysates", "description": "GST-p12 and IN-HA were expressed in 293T cells from pCAGGS/GST and pCMV4/HA-derived plasmids respectively, by transient transfection using Turbofect (Thermo Fisher Scientific). Approximately 24 h after transfection, cells were changed into fresh media and incubated overnight at 37°C. Cells were then washed and lysed in 20 mM Tris-HCl pH 8.0, 300 mM NaCl, 1 mM EDTA, 10% Glycerol, 1% Triton X-100, protease inhibitors. Lysis was facilitated by passing the lysates through a 19-gauge needle x7 and sonication, x7 pulses, 30 s ON and 30 s OFF, in an ice bath (Decon FS100). After sonication, the lysates were supplemented with 4 mM MgCl2 and 1 mM DTT, and incubated for a further 1 h at 4°C. The lysates were then clarified by centrifugation and diluted 1:3 in 20 mM Tris-HCl pH 8.0, 10% glycerol, 4 mM MgCl2 and 1 mM DTT. The lysates were then normalised based on total protein concentration using the Bradford protein assay (Bio-Rad). 0.7 ml aliquots of lysates at 0.7 mg/ml were incubated with calf thymus DNA-coated cellulose beads (100 μl/reaction of a 50% slurry) (Sigma) for 1 h at 4°C with end-over-end rotation. The beads were then washed three times in 20 mM Tris pH 8.0, 100 mM NaCl, 0.33 mM EDTA, 10% Glycerol, 0.33% Triton X-100, 4 mM MgCl2 and 1 mM DTT and re-suspended in 50 μl of x2 protein loading dye for SDS-PAGE and immunoblotting."}},
  "data": [
    {"molecule": "B1", "values": [
      {"measurement": "phosphorylation at mitosis in comparison to interphase", "setting": "[1]", "result": "3–4 fold"},
      {"measurement": "sub-cellular distribution by fractionation", "setting": "[2]", "result": "mainly cytoplasmic"},
      {"measurement": "binding to DNA-coated beads", "setting": "[3]", "result": "no binding to DNA was observed"}
    ]}
  ]
}
